One may read the EC50 as the concentration that produces a half-maximal response.

Read-outs that look alike come from different tables or passages of the source. Non-standard residues stand in square brackets, D forms with d. No end group written: not given here. Ahx = NCCCCCC(=O)O

Results on 3 molecules are retold here after patent US20220242939A1 (BIOARCTIC, published 2022).

Experiment [1] addresses T1, L198 N-terminal neo-epitope peptide LAGQPL-Acp-C (SEQ ID NO:52) conjugated to BSA (human, not fully specified (residue 8); printed as LAGQPL-Acp-C; also: C-terminal Cys conjugated to BSA carrier).
T1 construct: BSA carrier; also called L198-BSA peptide
T1 peptide: LAGQPL[Ahx]C
As to the kind of experiment: direct ELISA, L198-BSA peptide coated at 1 µg/ml. On the procedure:
(§1) Selectivity evaluation of purified monoclonal antibodies by direct ELISA: The direct ELISA described below was used to evaluate the binding selectivity of the purified monoclonal antibodies produced in Example 14.
(§2) The screening was performed according to standard ELISA protocols. Briefly, 1 μg/ml solutions of BSA-conjugated neo-epitope peptides and negative control peptide, and 0.1 μM recombinant C-terminal ApoE fragment and full-length ApoE (Abcam, cat. no. ab50243) were prepared by dilution in PBS. 50 μl/well were added to an ELISA half-area 96 well microtiter plate, and the plate was sealed with adhesive sealer and incubated over night at 4° C. After discarding the solution, the plates were blocked with 150 μl/well of protein-free blocking solution (Pierce) for 1 h at room temperature with shake (600-900 rpm). The plates were washed four times with washing buffer containing 0.28 mM NaH₂PO₄, 2.5 mM Na₂HPO₄, 150 mM NaCl, 0.1% TWEEN®-20 and 0.0075% Kathon CG. Purified monoclonal antibodies of interest were 3-fold serially diluted with a starting dilution at 3 μg/ml (mixed 1:2 with dilution buffer (PBS with 0.1% BSA and 0.05% TWEEN®-20)). An anti-ApoE C-terminal antibody was used as a reference antibody (ApoE E-8 mouse monoclonal, Santa Cruz Biotechnology, cat. no. sc-393302). 50 μl/well were added into the ELISA plates and incubated for 2 h at room temperature with shake (600-900 rpm). The plates were washed four times as described previously. […] After another wash (as described previously), 50 μl/well of K-Blue® aqueous substrate (Neogen) were added, and the reaction was stopped after 5-15 min with 50 μl/well of 0.5 M H2504. The optical density at 450 nm was read using an ELISA reader (Tecan).
In general terms: ELISA stands for enzyme-linked immunosorbent assay.

In experiment [2] the target is T2, full-length ApoE in human brain extract from Alzheimer's disease patients (human, UniProt P02649 19-317).
T2 construct: mature; Endogenous protein on Western blot or in solution (IP); also called ApoE full-length protein
Nature of the experiment: Western blot of AD brain RIPA 2% SDS extract; monoclonal antibody at 2 ug/ml as primary antibody. (In western blotting, separated proteins are transferred to a membrane and probed.)

In experiment [3] the target is T3, L198 N-terminal neo-epitope peptide LAGQPLQE-Acp-C (SEQ ID NO:54) conjugated to BSA (human, not fully specified (residue 10); printed as LAGQPLQE-Acp-C; also: C-terminal Cys conjugated to BSA carrier).
T3 construct: BSA carrier
T3 peptide: LAGQPLQE[Ahx]C
As to the kind of experiment: direct ELISA after limiting dilution.

Experiment [4] addresses T4, recombinant C-terminal ApoE fragment L198-HIS (ApoE-L198-H299-10xHIS) (human, UniProt P02649 216-317).
T4 construct: also called L198-HIS fragment
Nature of the experiment: direct ELISA, L198-HIS coated at 0.1 µM. The method, then:
as §1, §2

Experiment [5] deals with T5, recombinant full-length ApoE4 (aa 1-299; SEQ ID NO:45; Abcam cat. no. ab50243) (human, UniProt P02649 19-317).
T5 construct: Bought protein; also called recombinant ApoE4 full-length protein
Nature of the experiment: direct ELISA; proteins coated at 0.1 uM, BSA peptides at 1 ug/ml; antibody in 3-fold dilutions from 3000 ng/ml; blank reduced OD 450 nm. The method, then: as §1, §2

Experiment [6] has as its target T6, G200 N-terminal neo-epitope peptide GQPLQE-Acp-C (SEQ ID NO:50) conjugated to BSA (human, not fully specified (residue 8); printed as GQPLQE-Acp-C; also: C-terminal Cys conjugated to BSA carrier).
T6 construct: also called G200-BSA peptide; G200-peptide
T6 peptide: GQPLQE[Ahx]C
The description is as above. The method, then: as §1, §2

Experiment [7] has as its target T2, full-length ApoE in human brain extract …. As to the kind of experiment: Western blot of AD brain RIPA 2% SDS extract; anti-A199 antibody at 2 ug/ml as primary antibody. On the procedure: RIPA 2% SDS brain extract containing approximately 60 μg total protein was mixed with 2×Laemmli sample buffer, boiled for 5 min at 95° C. and loaded onto SDS-PAGE gels (Bolt™ 12% Bis-Tris Plus 10 well, Thermo Fisher, cat. no. NW00120BOX). Gels were run for 30-40 min at 180 V, after which proteins were transferred from the gels onto nitrocellulose membranes using the Trans-Blot® Turbo™ system (Bio-Rad). […] Membranes were washed and incubated for 1 h at room temperature with the detection antibody anti-mouse-800CW (LI-COR, cat. no. 925-32210) diluted 1:25000 in Intercept® PBS Blocking Buffer (LI-COR) with 0.1% TWEEN®-20. Membranes were washed and images acquired using Odyssey® FC (LI-COR).

The target in experiment [8] is T7, A199 N-terminal neo-epitope peptide AGQPLQE-Acp-C (SEQ ID NO:55) conjugated to BSA (human, not fully specified (residue 9); printed as AGQPLQE-Acp-C; also: C-terminal Cys conjugated to BSA carrier).
T7 construct: BSA carrier
T7 peptide: AGQPLQE[Ahx]C
As to the kind of experiment: direct ELISA after limiting dilution.

In experiment [9] the target is T8, A199 N-terminal neo-epitope peptide AGQPLQ-Acp-C (SEQ ID NO:51) conjugated to BSA (human, not fully specified (residue 8); printed as AGQPLQ-Acp-C; also: C-terminal Cys conjugated to BSA carrier).
T8 construct: BSA carrier; also called A199-BSA peptide
T8 peptide: AGQPLQ[Ahx]C
As to the kind of experiment: direct ELISA, A199-BSA peptide coated at 1 µg/ml. On the procedure:
(§3) Selectivity evaluation of purified monoclonal antibodies by direct ELISA: The direct ELISA described below was used to evaluate the binding selectivity of the purified monoclonal antibodies produced in Example 17.
as §2, with “H₂SO₄.” for “H2504.”

Experiment [10] concerns the target T9, recombinant C-terminal ApoE fragment A199-HIS (ApoE-A199-H299-10xHIS) (human, UniProt P02649 217-317).
T9 construct: also called A199-HIS fragment
As to the kind of experiment: direct ELISA, A199-HIS coated at 0.1 µM. The method, then: as §3
as §2, with “H₂SO₄.” for “H2504.”

Experiment [11] concerns the target T5, recombinant full-length ApoE4 (aa …). Nature of the experiment: direct ELISA; proteins coated at 0.1 uM, BSA peptides at 1 ug/ml; antibody in 3-fold dilutions from 3000 ng/ml; blank reduced OD 450 nm. On the procedure:
as §3
as §2, with “H₂SO₄.” for “H2504.”
This is another data set of the same source.

The target of experiment [12] is T10, negative control peptide AATVGSLAGQPLQER-Acp-C (SEQ ID NO:53) conjugated to BSA (human, not fully specified (residue 17); printed as AATVGSLAGQPLQER-Acp-C; also: C-terminal Cys conjugated to BSA carrier).
T10 construct: BSA carrier; also called 192-206 BSA-conjugated peptide
T10 peptide: AATVGSLAGQPLQER[Ahx]C
The description is as above. The method, then:
as §3
as §2, with “H₂SO₄.” for “H2504.”

For experiment [13], the target named is T1, L198 N-terminal neo-epitope peptide …. The experiment is described as above. The method, then: as §3
as §2, with “H₂SO₄.” for “H2504.”

Experiment [14] has as its target T6, G200 N-terminal neo-epitope peptide …. Described as above. The method, then: as §3
as §2, with “H₂SO₄.” for “H2504.”

T5 sequence (P02649 19-317 C130R limits assumed): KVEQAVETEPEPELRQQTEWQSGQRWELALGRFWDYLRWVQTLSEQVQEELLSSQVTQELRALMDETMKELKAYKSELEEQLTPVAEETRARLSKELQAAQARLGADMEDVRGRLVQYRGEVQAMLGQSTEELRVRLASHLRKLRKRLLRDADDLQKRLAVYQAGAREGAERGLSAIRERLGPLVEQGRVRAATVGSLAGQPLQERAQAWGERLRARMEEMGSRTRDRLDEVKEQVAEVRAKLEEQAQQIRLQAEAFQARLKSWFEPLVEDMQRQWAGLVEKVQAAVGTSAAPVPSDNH
T2 sequence (P02649 19-317): as the sequence (P02649 19-317 C130R limits assumed) above, with R112C counted along it
T9 sequence (P02649 other isoform, or with tags, fused parts or gaps limits assumed): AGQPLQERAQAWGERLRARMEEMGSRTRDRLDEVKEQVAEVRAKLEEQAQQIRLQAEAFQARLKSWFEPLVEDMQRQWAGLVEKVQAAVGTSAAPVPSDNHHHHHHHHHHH
T4 sequence (P02649 other isoform, or with tags, fused parts or gaps limits assumed): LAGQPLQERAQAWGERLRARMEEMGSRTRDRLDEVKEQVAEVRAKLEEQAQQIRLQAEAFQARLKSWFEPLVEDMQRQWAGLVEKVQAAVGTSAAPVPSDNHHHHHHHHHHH

B1: 15F8, monoclonal anti-L198 antibody (antibody, IgG2c, V domains shown)
VH: EVKLEESGGGLVHPGGSMKLSCVGSGFTFSNYWMNWVRQSPEKGLEWVAQIKLRSDNYATHYAESVKGKFTISRDDAKSSVYLQMDNLRAEDTGIYYCSHHYLDSGGYFDVWGTGTSVTVSS
VL: DIVMTQSQKFMSTSVGDRVSVTCKASQNVGINVAWYQDKPGQSPKGLILSASYRYSGVPDRFTGSGSGTDFTLTISNVQSEDLAEYFCQQYNSYPYTFGGGTKLEIK
As to B1, the figures for the EC50 in [1] and in [4] were 0.0247 µg/mL and 0.015 µg/mL, respectively. The binding result in experiment [2] was “no binding (tested: 2 ug/ml (text))”; in [3] it was “binds”; in experiment [5], “no binding (tested: 3000 ng/ml)”; in experiment [6], “no binding (tested: 3000 ng/ml)”.

B2: 36A12, monoclonal anti-A199 antibody (antibody, IgG1, V domains shown)
VH: EVKLEESGGGLVQPGGSMKLSCVASGFTFSNYWMNWVRQSPEKGLEWIGEIKLKSNNYGTHYAESVKGRFTISRDDSKSSVYLQMNNLRAEDTGIYYCTRDTEVVAGAHWGQGTLVTVSA
VL: NIMMTQSPSSLAVSAGEKVTMSCKSSQSVLYNSNQKNYLAWYQQKPGQSPKLLIYWASTRDSGVPDRFTGSGSGTDFTLTISSVRAEDLAVYFCQQYLSSLTFGAGTKLELK
In the case of B2, the binding result in [7] is listed as “no binding (tested: 2 ug/ml (text))”; in [8], “binds”; in experiment [11], “no binding (tested: 3000 ng/ml)”; in experiment [12] it was “no binding (tested: 3000 ng/ml)”; in experiment [13], “no binding (tested: 3000 ng/ml)”; in experiment [14], “no binding (tested: 3000 ng/ml)”. For the same molecule, the EC50 was 0.0051 µg/mL in experiment [9] and 0.0202 µg/mL in experiment [10].

B3: 38G9, monoclonal anti-A199 antibody (antibody, IgG1, V domains shown)
VH: EVKLEESGGGLVQPGGSMKLSCVASGFTFSNYWMNWVRQSPEKGLEWVGEIKLKSNNYGTHYAESVKGRFTISRDDSKSSVYLQMNNLRAEDTGIYYCTRDTEVVAGAHWGQGTLVTVSA
VL: NIMMTQSPSSLAVSAGEKVTMSCKSSQSVLYSSNQKNYLAWYQQKPGQSPKLLIYWASTRESGVPDRFTGSGSGTDFTLTISSVQAEDLAVYFCQQYLSSLTFGAGTKLELK
Consider B3, for which the binding result in experiment [7] is “no binding (tested: 2 ug/ml (text))”; in [8], “binds”; in [11], “no binding (tested: 3000 ng/ml)”; in experiment [12], “no binding (tested: 3000 ng/ml)”; in experiment [13], “no binding (tested: 3000 ng/ml)”; in [14], “no binding (tested: 3000 ng/ml)”. In addition, the EC50 in [9] came out at 0.0046 µg/mL; in experiment [10], 0.0397 µg/mL.
